Earlier results, collected in publication PMC4192513, “A Novel Protein-Protein Interaction in the RES (REtention and Splicing) Complex” (The Journal of Biological Chemistry, 2014).
Entries after “also recorded” stand apart in the source; their conditions may differ.

Tested on: RES complex (Snu17p, Bud13p, Pml1p)
Settings: ref [4]
Description: Previous biochemical analyses have shown that Snu17p binds Bud13p directly ([4], [6]). Based on a mutational analysis of the invariant Bud13p Trp^232 residue ([6]), the interaction of Bud13p with the Snu17p RRM has been proposed to resemble a typical UHM-ULM interaction. […] The structural findings are consistent with our initial mutagenesis analysis, which was guided by the recognition features described for the UHM family.

B1: W232A: single W232A mutant of Bud13p, from ref [4] (protein, UniProt P46947 1-266, looked up, variant W232A)
Pre-mRNA-splicing factor CWC26: MALHQYLSETYGPTKPKNKTKKKKKESKSDANSDKTSLIVKERLSTLQQEQEKSGVASFSKFDKQKSKNIWKNLETNELSHAITHPSASSITGNESKNDLKEIRAQEPLVTVADKSKTRKTIYRDAQGHKIQEDSKIDDSSFSRSKYEDEKAAEREQYLKNLNMGDVQKLGINVDAHDKKKNQTASSLTIEDPAITFTHDKERTVKTSLLGRKLYDKPAPENRFAIMPGSRADGVHRSNGFEEKWFAKQNEINEKKVQSYTLQEDY
  interaction with Snu17p / complex formation of W232A mutant: did not abolish its interaction with Snu17p; also recorded: did not prevent complex formation
